Substitutions are numbered along the chain they refer to. Names may count otherwise.
T1: human myostatin (mature, recombinant; R&D Systems) (human, UniProt O14793 267-375)
T1 construct: biotinylated in the mRNA display selection; also called GDF-8; mature myostatin
T1 sequence: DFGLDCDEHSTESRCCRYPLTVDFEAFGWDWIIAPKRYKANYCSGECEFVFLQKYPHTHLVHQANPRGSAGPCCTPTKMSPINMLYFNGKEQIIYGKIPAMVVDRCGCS

T2: human BMP-11 (GDF-11; R&D Systems) (human, UniProt O95390 299-407)
T2 sequence (looked up): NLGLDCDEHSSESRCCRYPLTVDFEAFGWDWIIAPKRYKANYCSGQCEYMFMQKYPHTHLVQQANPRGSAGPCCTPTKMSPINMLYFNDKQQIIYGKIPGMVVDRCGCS

T3: human Activin A (R&D Systems) (human, UniProt P08476 311-426)
T3 sequence (looked up): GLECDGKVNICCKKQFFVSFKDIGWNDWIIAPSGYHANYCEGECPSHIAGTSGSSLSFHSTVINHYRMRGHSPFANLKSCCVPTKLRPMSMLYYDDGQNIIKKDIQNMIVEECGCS

B1: 1979_B06 (designed binder)
chain: MGVSDVPRDLEVVAATPTSLLISWSLPHAGHVNYYRITYGETGGNSPVQEFTVPGRGVTATISGLKPGVDYTITVYAVTLTKSQMIHYMPISINYRTEIDKPSQHHHHHH
notes: monoAdnectin with His6 tag; also called ATI-1133
B2: 2524_C11 (designed binder)
chain: B1 chain with S25T, H31L, V32A, N33H, K82N, Q84E, M85I, H87L, M89K
B3: 2524_H11 (designed binder)
chain: B1 chain with V32A, N33H, L80V, T81S, K82S, S83T, Q84K, M85V, H87V, M89L
B4: 2524_E10 (designed binder)
chain: B1 chain with H28F, V32L, K82R, Q84K, M85I
B5: ATI-1376 [40K 2-branch PEG] (designed binder)
chain: MGVSDVPRDLEVVAATPTSLLISWDAPAGLARYYRITYGETGGNSPVQEFTVVGRGNTATISGLKPGVDYTITVYAVTIFRDGPVTWDPISINYRTEGSGCHHHHHH
modifications: 40K 2-branch PEG on the Cys of the EGSGC tail
notes: cysteine mutant of 3115_E06
B6: ATI-1377 [40K 2-branch PEG] (designed binder)
chain: B5 chain with A28K
modifications: 40K 2-branch PEG on the Cys of the EGSGC tail
B7: ATI-1375 [40K 2-branch PEG] (designed binder)
chain: B5 chain with A28R, V53F, N57T, F80D, P84T, V85R, T86S, W87F
modifications: 40K 2-branch PEG on the Cys of the EGSGC tail
notes: cysteine mutant of 3115_D04
B8: ATI-1266 [40K 2-branch PEG] (designed binder)
chain: MGVSDVPRDLEVVAATPTSLLISWTLPHAGRAHYYRITYGETGGNSPVQEFTVPGRGVTATISGLKPGVDYTITVYAVTVTTTSVILYKPISINYRTEGSGCHHHHHH
modifications: 40K 2-branch PEG on the Cys of the EGSGC tail
notes: cysteine mutant of 2525_D02
B9: ATI-1379 [40K 2-branch PEG] (designed binder)
chain: B8 chain with T25S, A29Q, R31K, H33N, T82D, S84G, V85Y, I86L, L87K
modifications: 40K 2-branch PEG on the Cys of the EGSGC tail
B10: ATI-1378 [40K 2-branch PEG] (designed binder)
chain: B8 chain with T25S, H28N, A29P, R31N, T82D, S84G, V85F, L87T
modifications: 40K 2-branch PEG on the Cys of the EGSGC tail
notes: cysteine mutant of 3146_A08
B11: ATI-1359 [40K 2-branch PEG] (designed binder)
chain: MGVSDVPRDLEVVAATPTSLLISWTLPHAGRAHYYRITYGETGGNSPVQEFTVPGRGVTATISGLKPGVDYTITVYAVTVTTTKVIHYKPISINYRTEGSGC
modifications: 40K 2-branch PEG on the Cys of the EGSGC tail
B12: 3116_A06 H28A (designed binder)
chain: MGVSDVPRDLEVVAATPTSLLISWSLPAQGKANYYRITYGETGGNSPVQEFTVPGRGVTATISGLKPGVDYTITVYAVTVTDTGYLKYKPISINYRTEIDKPSQHHHHHH
B13: 3116_A06 L26A (designed binder)
chain: B12 chain with L26A, A28H
B14: 3116_A06 N33A (designed binder)
chain: B12 chain with A28H, N33A
B15: 3116_A06 Y85A (designed binder)
chain: B12 chain with A28H, Y85A
B16: 3116_A06 P27A (designed binder)
chain: B12 chain with P27A, A28H
B17: 3116_A06 L86A (designed binder)
chain: B12 chain with A28H, L86A
B18: ATI-1106 [40K 2-branch PEG] (designed binder)
chain: MGVSDVPRDLEVVAATPTSLLISWVSPRGRARYYRITYGETGGNSPVQEFTVPGRGSTATISGLKPGVDYTITVYAVTIYRDGMSHHDPISINYRTGSGCHHHHHH
modifications: 40K 2-branch PEG on the Cys of the GSGC tail
B19: ATI-1341 [20K Bis-PEG] (designed binder)
chain: B8 chain with S84K, L87H
modifications: two Adnectins joined through their tail Cys to the two ends of a 20 kDa bis-PEG
notes: bivalent PEGylated form of the 2987_H07 cysteine mutant

The binders below were run against T1, human myostatin (mature, recombinant; …) (assay: SPR format A, 25C).
Source text: (§1) Anti-human Fc antibody (Biacore/GE) was immobilized on a Biacore CM5 chip via NHS/EDC coupling according to the manufacturer's instructions. […] A concentration range of anti-myostatin Adnectin was applied across all flow cells in HBSP running buffer. Regeneration of the chip surface between cycles was accomplished with two 30 second pulses of 3M MgCl₂. Kinetic traces of reference-subtracted sensorgrams were fit to a 1:1 binding model using Biaevaluation software.

| Binder | Kd [nM] |
| --- | --- |
| B1 | 29 |
| B2 | 0.62 |
| B3 | 1.12 |
| B4 | 1.34 |
| B5 | 8.21 |
| B6 | 8.21 |
| B7 | 12.6 |
| B8 | 0.76 |
| B9 | 9.5 |
| B10 | 14.4 |
| B11 | 7.9 |

These binders were tested against T2, human BMP-11 (GDF-11; R&D Systems) (assay: SPR format A, 25C).
Source text: as §1

| Binder | Kd [nM] |
| --- | --- |
| B1 | 489 |
| B2 | 0.67 |
| B3 | 1.22 |
| B4 | 1.42 |
| B5 | 13.4 |
| B6 | 14.2 |
| B7 | 33.2 |
| B8 | 2.57 |
| B9 | 21.6 |
| B10 | 59.6 |
| B11 | 35.5 |

What follows are binders tested against T3, human Activin A (R&D Systems) (assay: SPR format A, 25C).
Source text: as §1

| Binder | binding result |
| --- | --- |
| B1 | no binding |
| B2 | no binding |
| B3 | no binding |
| B4 | no binding |

What follows are binders tested against T1, human myostatin (mature, recombinant; …) (assay: cell-based or functional assay).

| Binder | ARE-luciferase cell-based assay, IC50 relative to parent sequence [fold] |
| --- | --- |
| B12 | > 10 |
| B13 | > 10 |
| B14 | > 10 |
| B15 | > 10 |
| B16 | > 10 |
| B17 | > 10 |

Biological target: T1, human myostatin (mature, recombinant; …)
Experiment: cell-based or functional assay
Remark: another data set of the same source

| Binder | ARE-luciferase IC50 [nM] |
| --- | --- |
| B1 | 0.11 |
| B2 | 0.1 |
| B3 | 0.03 |
| B4 | 0.09 |

The binders below were run against T2, human BMP-11 (GDF-11; R&D Systems) (assay: cell-based or functional assay).

| Binder | ARE-luciferase IC50 [nM] |
| --- | --- |
| B1 | 3.3 |
| B2 | 0.89 |
| B3 | 6.2 |
| B4 | 5.6 |

What follows are binders tested against T3, human Activin A (R&D Systems) (assay: cell-based or functional assay).

| Binder | ARE-luciferase IC50 [nM] |
| --- | --- |
| B1 | 194 |
| B2 | 765 |
| B3 | > 1000 |
| B4 | > 1000 |

Biological target: T1, human myostatin (mature, recombinant; …)
Experiment: cell-based or functional assay
Remark: another data set of the same source

| Binder | ARE-luciferase IC50 [nM] |
| --- | --- |
| B18 | 177 |
| B5 | 0.03 |
| B6 | 0.05 |
| B7 | 0.17 |
| B8 | 0.12 |
| B19 | 0.03 |
| B9 | 0.1 |
| B10 | 0.29 |
| B11 | 0.26 |

Biological target: T2, human BMP-11 (GDF-11; R&D Systems)
Experiment: cell-based or functional assay
Remark: another data set of the same source

| Binder | ARE-luciferase IC50 [nM] |
| --- | --- |
| B18 | 1410 |
| B5 | 0.83 |
| B6 | 0.78 |
| B7 | 1.6 |
| B8 | 0.89 |
| B19 | 0.14 |
| B9 | 4.3 |
| B10 | 5.4 |
| B11 | 3.1 |

Biological target: T3, human Activin A (R&D Systems)
Experiment: cell-based or functional assay
Remark: another data set of the same source

| Binder | ARE-luciferase IC50 [nM] |
| --- | --- |
| B18 | > 2000 |
| B5 | > 1000 |
| B6 | > 1000 |
| B7 | > 1000 |
| B8 | 2000 |
| B19 | 14 |
| B9 | > 1000 |
| B10 | > 1000 |
| B11 | > 1000 |

Biological target: T1, human myostatin (mature, recombinant; …)
Experiment: cell-based or functional assay
Remark: another data set of the same source

| Binder | pSmad2 IC50, 12-point [nM] |
| --- | --- |
| B1 | 12.8 |
| B2 | 0.14 |
| B3 | 0.11 |
| B4 | 0.13 |

Biological target: T1, human myostatin (mature, recombinant; …)
Experiment: cell-based or functional assay
Remark: another data set of the same source

| Binder | Myostatin ARE-luc IC50 [nM] |
| --- | --- |
| B12 | 6.2 |
| B13 | 16 |
| B14 | 9.8 |
| B15 | 5.5 |
| B16 | 10 |
| B17 | 12 |

Each binder was assayed against T1, human myostatin (mature, recombinant; …) (assay: competitive HTRF, alanine scan).

| Binder | IC50 [nM] |
| --- | --- |
| B12 | 0.8 |
| B13 | 2.3 |
| B14 | 2 |
| B15 | 2 |
| B16 | 1 |
| B17 | 1.4 |

The binders below were run against T1, human myostatin (mature, recombinant; …) (assay: competitive HTRF (1889E01/myostatin/ActRIIb-Fc sandwich)).
Source text: An HTRF assay was used to measure the binding affinities of anti-myostatin Adnectins to myostatin. […] The Eu-W 1024 labeled Streptavidin is used to bind biotinylated 1889E01. […] In the presence of a competitive Adnectin, the HTRF signal decreases.

| Binder | IC50 [nM] |
| --- | --- |
| B5 | 0.32 |
| B6 | 0.15 |
| B7 | 0.76 |
| B8 | 0.21 |
| B19 | 0.13 |
| B9 | 0.28 |
| B10 | 1.29 |
| B11 | 0.36 |
